assay: soluble on expression in E. coli; label from the status in PepcDB or PDB records

| Sequence | soluble on expression in E. coli |
| --- | --- |
| MSLTTMLEVAKRAGVSKATVSRVLSGNGYVSQETKDRVFQAVEESGYRPNLLARNLSAKSTQTLGLVVTNTLYHGIYFSELLFHAARMAEEKGRQLLLADGKHSAEEERQAIQYLLDLRCDAIMIYPRFLSVDEIDDIIDAHSQPIMVLNRRLRKNSSHSVWCDHKQTSFNAVAELINAGHQEIAFLTGSMDSPTSIERLAGYKDALAQHGIALNEKLIANGKWTPASGAEGVEMLLERGAKFSALVASNDDMAIGAMKALHERGVAVPEQVSVIGFDDIAIAPYTVPALSSVKIPVTEMIQEIIGRLIFMLDGGDFSPPKTFSGKLIRRDSLIAPSREGHHHHHH | soluble |
| MSLTTSYHIGNVVCAIIEREGRFLIARRPLGKHLARKWEFPGSKVETGESEAEALERELIEELGVRMEIVERLMPVEHCYADRSLRLIAFHCRIAAGAPNAGEHEELRWIDIGEADDYDFPEADLPILAEYRQKIAASVQSEGHHHHHH | not soluble |
| MSLTTTPANVLASVDLGSNSFRLQICENNNGQLKVIDSFKQMVRFAAGLDEQKNLSAASQEQALDCLAKFGERLRGFRPEQVRAVATNTFRVAKNIADFLPKAEAALGFPIEIIAGREEARLIYTGVIHTLPPGGGKMLVIDIGGGSTEFVIGSTLNPDITESLPLGCVTYSLRFFQNKITAKDFQSAISAARNEIQRISKNMRREGWDFAVGTSGSAKSIRDVLAAEMPQEADITYKGMRALAERIIEAGSVKKAKFENLKPERIEVFAGGLAVMMAAFEEMKLDRMTVTEAALRDGVFYDLIGRGLNEDMRGQTVAEFQHRYHVSLNQAKRTAETAQTFMDSLCHAKNVTVQELALWQQYLGRAAALHEIGLDIAHTGYHKHSAYILENADMPGFSRKEQTILAQLVIGHRGDMKKMSGIIGTNEMLWYAVLSLRLAALFCRSRQDLSFPKNMQLRTDTESCGFILRIDREWLERHPLIADALEYESVQWQKINMPFKVEAVEGHHHHHH | soluble |
| MSLTYHIKTIGNNIDQIALDEIGEGFLVNQVSEAESDAFICRAQPFHDYEFSKALLAIGRAGAGFNNIPIEKCASKGIVVFNAPGGNANAVKELVLSMMIFGTRNLKPANKWLTGQKGDDNTIDGAVEHGKKAFSGSEISGKTLGVIGLGNIGSKVANDAQRLGMRVIGYDPYLSIEHAWNLSHHVKRVNDLAEIFEKADYITVHTPATDETTKMLNWKNLSKCKKGVILLNYARDEITDKEAVLKAIDEGIVRFFGTDFGSEKFYHHPQVFLTPHLGGSTAEASLNCTRMALDSVQTYLKTGEIINSVNFPRVLQELNTPYRVTLINKNVPNVVAQISLAVAAENINIANIVNRGQGDYAYTLLDLDEKDEGKLAALVSRFEAADNIIRVRLIENQSLEGHHHHHH | soluble |
| MSLTYINKEKVIKNLSYAIYLLKKMNFTLIPEVGSNIAESLPFPKDFKDVAALTGRIIKNKLGGFYIVGDIEFGASEHIAKIILSASKFNPEIRACMNIKYDGGLIKLLKDKFAVSSFDRKEEPPNVSTMEWGTKIACEKFGGVPDIIYDRGGEGKEPMIRVLGRDAIEVVKKVEVIQKIYNTLEGHHHHHH | soluble |
| MSLVEKQSALESKARSWLIERGVEIDDIAELVLFLQQKYHPGLELDICRQNVEHVLRKREVQNAVLTGIQLDVMAEKGELVQPLQNIISADEGLYGVDEILALSIVNVYGSIGFTNYGYIDKVKPGILAKLNEHDGIAVHTFLDDIVGAIAAAAASRLAHSYHDDIVNEGGSHHHHHH | soluble |
| MSLVEMVNRPYASAFEAFAVKNPDVLCLSADLTSSCEIDGFRDRHPDQFLSLGMAEQNMMSFAGGLGLAGYRPFLHSFGVFLYRRPYDQLMASVAYPRRKVRLMGFLPGITTPGGMTHQAIEDVAVMRSIPNMSILETGDATEVESICEAADSIDGPVYCRVLRGSIPRLFDTPIRVGEMRELALGADVLVVTSGIATEEALRARDALSNAGVSIRHLHIHTIKPFNEQALLDHIGSVSKGVVVLENHVITGGVGSLVAEIMADNGVGKPLVRLGLNDTYAHGGSRGYLMKHYGLDAGALVRGIERIIGASTGIDEEALASARVDAVHSAVKAEAEGHHHHHH | not soluble |
| MSLVISIRRSRHEEGEELVAIWCRSVDATHDFLSAEYRTELEDLVRSFLPEAPLWVAVNERDQPVGFMLLSGQHMDALFIDPDVRGCGVGRVLVEHALSMAPELTTNVNEQNEQAVGFYKKVGFKVTGRSEVDDLGKPYPLLNLAYVGAEGGSHHHHHH | soluble |
| MSLVLAYYSGYAGNYAALTRYAASFNAVAVDFYNITAQGAVTGNGDPAPNDAISFLLGRKIPAYGCVSNVDGNGNWSADIAHAVSTSAQSQAVANLVKFAQDKRFSGINVDFEAVAQGDRNNFSHFIQVLGRALHAKGLKLIVSVPAFSAKDENHPANYGYDLRALGAAADYLQIMSYDEAIPAWDPGPVAGSDWMEDDLDYAVERVPAAKILNGIPAYGYDWKRPGDGGMLYWKDTQALIARYGAQPRYDAGTHSLTFNYGAADGSRHTVWTENARSVALKASLVNAYGLGGTSLYALGMEDEGHHHHHH | soluble |
| MSLVLGNAWLVLADRVIEHGWVAIADGVIAEVGEGDAPNGAKDMHGDLVMPGLVELHTDHLEAHYTPRPKVQWNPVAAVVSYDGQLATCGITTVLDSLRVWREEGAEEVDGQAIVLAGAISTARDAQLLRADHFLHLRCEIPMPNVVAEAKELIDRPDIRLMSLMDHTPGQRQFRDEEKLRDYYRGKGAGMTDAELDVMFARRVYCKENYADANMRAIVELAHRYEIPLASHDDTTPENVADAIRDRVAVAEFPTTLEAARELHQAGIDILMGAPNVVRGGSHSGNIAAIDLAHEGLLDILSSDYIPSSLLIAALQLPMRAPGIDLAAAIRTVTKAPAEAVGLNDRGEISKGKRADLIRVHVAHDVPAVRSVWREGQRVAEGHHHHHH | soluble |
| MSLVLNDLLICCRQLEHDRATERKKEVEKFKRLIRDPETIKHLDRHSDSKQGKYLNWDAVFRFLQKYIQKETECLRIAKPNVSASTQASRQKKMQEISSLVKYFIKCANRSK | not soluble |
| MSLVNIEFYESVAASEAKFINDTLIPQFEAEYPGIHVTFVNVGSEDVSKDILAMEASGHVGPIVAGQDNLEIGQLIYSSHGNVLMNLTAMSPALMPSSLIPAASNLVQYEQKVFGGIYFFPFRGNVPLVFYNKTALSDAGISSPPANYTQLLQDAMTIHSKTGKDPIMIQGASTNGGHTGSSTATEMYQMMVQFGGNPLYLNDTGDIHAVEMLYNLSAYFSPDFKTGYWGSYRGLAVGNYSILDYQWPYVYNILTASPYNMTNSTLGVYPGPAGPVNANHVLGGDVLFIPKGATNIPSLEAFIRFLLGAQAQRETLLNLSWVAINQNAYRNLPKSESVIFTALEQAIATGVFLRNPTPWITEWQVIFCNDVFNPLFVTHSKTYSDIPSLLSYAHSQMYSYIAANYGQANATLYNNPNAYAPISEGHHHHHH | not soluble |
| MSLVPRVMSTQHPDNARIPFFAASEVLNGEDEVREAYYVFSHFKCDEQMWDFEGKEADAHIVRKLLSSYYDFFSSRPLGKDFRLTMRVPNPEIEKGEAKLLAETLEMIPRSYDYVRSLGIEHPPIFEVILPMTRSAEEVMKVHAFYRDFVAGKGRFELLGEKVSDWLGDFLPEEIKVIPLFEDRDSLMRAAEISERYAEWAELDELRVFLARSDPAMNYGFVAATIYVKKALYDLSQLGISTYPILGVGSCPFRGGFSPKNLSVLDEFPSVYTFTVQSAFKYDYEFGDVRRAIKRAKEAARRKSDYVDEEHLQVAEKLKDGYRRRIAKIAEIVNRISSRIPRRRMRKLHVGLFGYSRGEEIKLPRAITFCASLYSIGLPSEIIGIAEMSDKDYEAVCEVFKNFDGMMESAMSLFNPESLKIVDLSMDFERAKELFGYEPDERHLEKTNEIIKQIDGDIKNLVVEAGILRGFLGEGHHHHHH | not soluble |
| MSLVTIVAPMDEILERAHVVALPMRVKFRGIMVREAVLFDGPKGWGEFSPFVEYGVQEAAQWLRCGLEMAFQGPPPMIRDAVEVNATIPAVSPDQVPEILARYPGCTTVKVKVAEGDDAARVAMVREVLPDARIRVDANRGWTVDQAVAASKHLGELEYMEQPCASVAELAELRRRISVPIAADESIRRVSDPYEVARLHAADVAVVKAAPLGGPRNIVDIAKFYQQRGLSLTVASALDTGVGMNAGIAVAAAIDSNPAGLATQRLFVEDVTEPRTIVDGKMSVEMLAPDPARLAEFEVTGPRRDWWLDRVRGALECLHDFIPEGHHHHHH | not soluble |
